{
  "source": "paper PMC10268231",
  "about": "(Nature, 2021)",
  "key": {"[1]": {"target": "T1, CTC1;STN1;TEN1;POLA1 (p180);POLA2 (p70);PRIM1 (p49);PRIM2 (p58) (human;human;human;human;human;human;huma …, UniProt Q2NKJ3;Q9H668;Q86WV5;P09884;Q14181;P49642;P49643 …, ||||||)", "assay": "cryo-EM"}, "[2]": {"target": "T1, CTC1;STN1;TEN1;POLA1 (p180);POLA2 …", "assay": "negative-stain EM"}, "[3]": {"target": "T1, CTC1;STN1;TEN1;POLA1 (p180);POLA2 …", "assay": "cryo-EM", "remark": "listed apart in the source"}},
  "data": [
    {"binder": "TTAGGGTTAGGGTTAGGGTTAGGGTTAGGGTTAGGG (ssDNA)", "note": "[6xTEL]", "values": [
      {"measurement": "binding result", "setting": "[1]", "result": "binds"}
    ]},
    {"binder": "TTAGGGTTAGGGTTA (ssDNA)", "note": "[(TTAGGG)2TTA 15-nt template]", "values": [
      {"measurement": "binding result", "setting": "[2]", "result": "binds"}
    ]},
    {"binder": "TTAGGGTTAGGGTTAGGG (ssDNA)", "note": "[3xTEL]", "values": [
      {"measurement": "binding result", "setting": "[3]", "result": "binds"}
    ]}
  ]
}
